Measured values reported in the supplement of paper PMC7877785.
± gives the uncertainty stated by the source.

Experiment: self-splicing fitness, log relative to wild type (ln ratio); higher = more splicing; Tetrahymena group I intron in knt gene, E. coli kanamycin selection, DiMSum; sequences stand for … in CUCUCU…GGAGGGAAAAGUUAUCAGGCAUGCACCUGGUAGCUAGUCUUUAAACCAAUAGAUUGCAUCGGUUUAAAAGGCAAGACCGUCAAAUUGCGGGAAAGGGGUCAACAGCCGUUCAGUACCAAGUCUCAGGGGAAACUUUGAGAUGGCCUUGCAAAGGGUAUGGUAAUAAGCUGACGGACAUGGUCCUAACCACGCAGCCAAGUCCUAAGUCAACAGAUCUUCUGUUGAUAUGGAUGCAGUUCACAGACUAAAUGUCGGUCGGGGAAGAUGUAUUCUUCUCAUAAGAUAUAGUCGGACCUCUCCUUAAUGGGAGCUAGCGGAUGAAGUGAUGCAACACUGGAGCCGCUGGGAACUAAUUUGUAUGCGAAAGUAUAUUGAUUAGUUUUGGAGUACUCGUGGUCG
How it was run: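 Library with all eight P1ex-region intron nucleotides randomised, intron inside the knt kanamycin-resistance gene on pET-22b(+), in E. coli BL21(DE3). Cells grew overnight at 37°C or 30°C on LB agar with or without 25 μg/mL kanamycin (plus 100 μg/mL carbenicillin, 50 μM IPTG, 0.2% rhamnose), in six replicate transformations. Pooled colonies were amplicon-sequenced on Illumina HiSeq 2500. DiMSum fitness is the error-weighted combination of wild-type-normalised replicate fold changes, kanamycin versus none.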

Sequence	self-splicing fitness (ln) (30 °C)	self-splicing fitness (ln) (37 °C)
UUGAAGCAAUAUUACGUCAA	-0.54 ± 0.083	0.078 ± 0.1
UUGAAGCAAUAUUACGUCAC	-3.27 ± 0.21	-1.25 ± 0.2
UUGAAGCAAUAUUACGUCCU	-0.231 ± 0.18	-0.346 ± 0.13
UUGAAGCAAUAUUACGUCUA	0.0429 ± 0.11	0.627 ± 0.12
UUGAAGCAAUAUUACGUGGC	-3.36 ± 0.2	-1.66 ± 0.22
UUGAAGCAAUAUUACGUGUU	-4.53 ± 0.21	-1.92 ± 0.14
UUGAAGCAAUAUUACGUUAG	-0.587 ± 0.1	0.138 ± 0.12
UUGAAGCAAUAUUACGUUUC	-3.35 ± 0.2	-3.3 ± 0.32
UUGCAGCAAUAUUACGAACA	-0.626 ± 0.17	-1.24 ± 0.15
UUGCAGCAAUAUUACGAAGC	-2.28 ± 0.3	-0.93 ± 0.36
UUGCAGCAAUAUUACGAAUC	–	-2.06 ± 0.47
UUGCAGCAAUAUUACGAGUG	-1.61 ± 0.1	-1.46 ± 0.13
UUGCAGCAAUAUUACGCCGG	-0.957 ± 0.075	-0.103 ± 0.12
UUGCAGCAAUAUUACGCCUC	-2.47 ± 0.45	-0.787 ± 0.37
UUGCAGCAAUAUUACGCUGA	-3.27 ± 0.26	-1.68 ± 0.17
UUGCAGCAAUAUUACGGAAA	-2.52 ± 0.14	-0.504 ± 0.1
UUGCAGCAAUAUUACGGAAG	-3.02 ± 0.34	-0.414 ± 0.14
UUGCAGCAAUAUUACGGAGU	-4.51 ± 0.42	-2.44 ± 0.2
UUGCAGCAAUAUUACGGCUG	-3.43 ± 0.3	-2.59 ± 0.24
UUGCAGCAAUAUUACGGUGA	-1.44 ± 0.14	0.0799 ± 0.14
UUGCAGCAAUAUUACGGUGC	-3.79 ± 0.26	-2.67 ± 0.26
UUGCAGCAAUAUUACGUUGG	-2.68 ± 0.15	-2.42 ± 0.18
UUGGAGCAAUAUUACGAAGA	-2.83 ± 0.41	-2.53 ± 0.49
UUGGAGCAAUAUUACGACGC	–	-2.47 ± 0.33
UUGGAGCAAUAUUACGAGAC	–	-2.25 ± 0.5

Sequence	self-splicing fitness (ln) (30 °C)	self-splicing fitness (ln) (37 °C)
UUGGAGCAAUAUUACGAGAU	-2.83 ± 0.29	-2.36 ± 0.36
UUGGAGCAAUAUUACGAGGA	-3.13 ± 0.48	-1.56 ± 0.27
UUGGAGCAAUAUUACGAUGC	-1.76 ± 0.28	–
UUGGAGCAAUAUUACGCAGA	-2.13 ± 0.33	-1.13 ± 0.16
UUGGAGCAAUAUUACGCAUG	-3.5 ± 0.26	-0.58 ± 0.13
UUGGAGCAAUAUUACGCGUC	-4.81 ± 0.29	-2.77 ± 0.24
UUGGAGCAAUAUUACGCUGA	-1.98 ± 0.17	-1.5 ± 0.16
UUGGAGCAAUAUUACGCUGG	-1.62 ± 0.34	-0.962 ± 0.32
UUGGAGCAAUAUUACGGCCA	-2.23 ± 0.19	-0.299 ± 0.15
UUGGAGCAAUAUUACGGGCG	-3.99 ± 0.39	-2.13 ± 0.31
UUGGAGCAAUAUUACGGGGG	-2.12 ± 0.39	-2.14 ± 0.5
UUGGAGCAAUAUUACGGGUA	–	-2.02 ± 0.23
UUGGAGCAAUAUUACGUCCA	-2.2 ± 0.2	-1.74 ± 0.23
UUGGAGCAAUAUUACGUGAC	-2.9 ± 0.41	-0.119 ± 0.45
UUGGAGCAAUAUUACGUUUG	-4.04 ± 0.25	-2.92 ± 0.28
UUGUAGCAAUAUUACGAGCU	-1.88 ± 0.22	-0.4 ± 0.2
UUGUAGCAAUAUUACGAGUG	-1.69 ± 0.14	-0.408 ± 0.12
UUGUAGCAAUAUUACGAUGC	–	-1.92 ± 0.43
UUGUAGCAAUAUUACGCAAG	-1.29 ± 0.17	-0.849 ± 0.2
UUGUAGCAAUAUUACGCGAU	-3.54 ± 0.26	-2.51 ± 0.25
UUGUAGCAAUAUUACGCGCG	-1.25 ± 0.12	-0.356 ± 0.18
UUGUAGCAAUAUUACGCGCU	-2.05 ± 0.16	-0.976 ± 0.11
UUGUAGCAAUAUUACGCUCU	-1.21 ± 0.2	-1.29 ± 0.15
UUGUAGCAAUAUUACGCUGU	-3.02 ± 0.35	-2.49 ± 0.27
UUGUAGCAAUAUUACGGCUC	-1.79 ± 0.31	0.26 ± 0.24
